The test deals with T1, recombinant murine CD73 protein (form not stated) (murine) (UniProt Q61503).
T1 sequence (looked up): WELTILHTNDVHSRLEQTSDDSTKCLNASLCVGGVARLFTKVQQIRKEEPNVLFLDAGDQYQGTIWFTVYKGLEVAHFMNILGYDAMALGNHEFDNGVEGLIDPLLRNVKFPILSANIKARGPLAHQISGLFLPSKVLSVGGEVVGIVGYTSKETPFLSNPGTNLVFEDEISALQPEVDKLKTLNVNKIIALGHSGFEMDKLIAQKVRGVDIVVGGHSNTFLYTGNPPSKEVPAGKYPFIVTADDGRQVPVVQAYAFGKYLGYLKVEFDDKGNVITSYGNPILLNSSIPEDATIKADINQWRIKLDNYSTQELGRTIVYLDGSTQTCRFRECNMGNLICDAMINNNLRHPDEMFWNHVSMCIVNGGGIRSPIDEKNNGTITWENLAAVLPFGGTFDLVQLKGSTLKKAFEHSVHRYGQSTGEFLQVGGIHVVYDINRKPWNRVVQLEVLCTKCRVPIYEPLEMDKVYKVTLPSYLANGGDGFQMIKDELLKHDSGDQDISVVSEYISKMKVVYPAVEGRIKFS
Put plainly: Binding, Mouse; assay not described.

B1: CD730042 antibody (antibody, IgG1, V domains shown)
VH: GVQLVQSGGGLVQPGGSLRLSCAASGFTFSSYGMHWVRQAPGKGLEWVAVISYDGSIKYYADSVKGRFTISRDDSKNALYLQMNSLRAEDTAVYYCSTLSGSYGYFDYWGRGTLVTVSS
VL: QSVLTQPASVSGSPGQSITISCAGTSSDVGGYNYVSWYQQHPGKAPKLMIYEGSKRPSGVSNRFSGSKSGNTASLTISGLQAEDEADYYCSSYTTRSTRVFGGGTKLTVL
Regarding B1, the 1/EC50 was found to be 0 nM⁻¹.

B2: CD730047 antibody (antibody, IgG1, V domains shown)
VH: EVQLVQSGGGVVQPGRSLRLSCAASGFTFSSYGMHWVRQAPGKGLEWVAVISYDGSIKYYADSVKGRFAISRDNAKNTLYLQMNSLRREDTAMYYCASGLTGVAGALGVWGRGTLVTVSS
VL: QSVLTQPPSASGAPGQRVTISCSGSSSNIGSNTVNWYQRLPGAAPQLLIYNNDQRPSGIPDRFSGSKSGTSGSLVISGLQSEDEADYYCAAWDDSLSGNVFGTGTKVTVL
Turning to B2, the 1/EC50 turned out to be 0 nM⁻¹.
